What was measured:
Experiment in all cases: SPR
[1] = biological target: L7-1F08-A11 (L7A11, EsR A11) (Artificial Sequence) (UniProt P04483); conditions: ka 7.1e4 M-1 s-1, kd 1.7e-2 s-1; operator sequence not given for SPR
[2] = tested on: L7-1G06-B2 (Artificial Sequence); conditions: ka 4.6e4 M-1 s-1, kd 1.9e-2 s-1; operator sequence not given for SPR
[3] = tested on: L7-1C03-A5 (EsR1) (Artificial Sequence); conditions: ka 4.7e4 M-1 s-1, kd 7.8e-3 s-1; operator sequence not given for SPR
[4] = biological target: Wt TetR(B) (Tn10) (Escherichia coli) (UniProt P04483); conditions: ka 3.3e5 M-1 s-1, kd 3.0e-3 s-1; operator sequence not given for SPR
[5] = tested on: L7-3E03-D1 (EsR D01) (Artificial Sequence); conditions: ka 5.5e4 M-1 s-1, kd 1.1e-2 s-1; operator sequence not given for SPR

tet operator used for SPR
Kd [1]: 0.25 µM | Kd [2]: 0.43 µM | Kd [3]: 0.15 µM | Kd [4]: 0.009 µM | Kd [5]: 0.2 µM

Reference: US20110287936
